System: catalytically inactive Cas9 (dCas9)
Assay: ChIP-qPCR of dCas9 binding at AAVS1 on-target and off-target sites in Hela cells
Assay type: cell-based
Conditions: AAVS1 on target and pre-determined off-target sites, two biological replicates, Fig. S9
Description: For ChIP experiments, low-passage Hela cells were seeded on to 15-cm plates at a density of 4 × 10^6 cells per plate. The next day, a total of 40.5 μg M13 G8PPD or M13 G8PFL plasmid, 20.25 μg 3×Flag-tagged dCas9 plasmid, and 20.25 μg sgRNA plasmid were transfected into cells using Lipofectamine 3000 (Invitrogen). Two biological replicates were performed for each condition. ChIP was performed with Simple ChIP Enzymatic Chromatin IP Kit (Cell Signaling Technology) following the manufacturer’s instructions. After 48 h, the cells were washed once with PBS, and 1.25 mL of 16% formaldehyde (Life Technologies) was added to 20 mL of serum-free DMEM for crosslinking to a final formaldehyde concentration of 1%. After 10 min of crosslinking at room temperature, the cells were harvested for the ChIP assay. The chromatin was sonicated using Branson digital sonifier for 10 cycles of “on/off” pulse with a 30-s interval. Fragmented chromatin was diluted and incubated with 2 μg anti-Flag Chip grade antibody (Sigma, USA) overnight at 4 °C. qPCR with immunoprecipitation-purified DNA as the template was used to analyze the effects of G8Ps on dCas9 binding at the on-target and off-target sites.

B1: M13 G8PFL: full-length M13 phage major coat protein G8P, expressed from plasmid in human cells (protein, UniProt P03619 1-74, looked up)
chain: MKKSVVAKIIAGSTLVIGSSAFAADDATSQAKAAFDSLTAQATEMSGYAWALVVLVVGATVGIKLFKKFVSRAS
modifications: full-length
notes: full-length M13 phage major coat protein G8P, expressed from plasmid in human cells
  binding specificity of dCas9 at on-target site: did not significantly improve
